Assay results reported in paper PMC9242592, “Activation of the human chemokine receptor CX3CR1 regulated by cholesterol” (Science Advances, 2022).
One block for each binder: values may come before it.

B3: human dominant negative Gαi1 (DNGαi1) with S47C, G202T, G203A, E245A and A326S (natural protein)
chain: MGCTLSAEDKAAVERSKMIDRNLREDGEKAAREVKLLLLGAGESGKCTIVKQMKIIHEAGYSEEECKQYKAVVYSNTIQSIIAIIRAMGRLKIDFGDSARADDARQLFVLAGAAEEGFMTAELAGVIKRLWKDSGVQACFNRSREYQLNDSAAYYLNDLDRIAQPNYIPTQQDVLRTRVKTTGIVETHFTFKDLHFKMFDVTAQRSERKKWIHCFEGVTAIIFCVALSDYDLVLAEDEEMNRMHASMKLFDSICNNKWFTDTSIILFLNKKDLFEEKIKKSPLTICYPEYAGSNTYEEAAAYIQCQFEDLNKRKDTKEIYTHFTCSTDTKNVQFVFDAVTDVIIKNNLKDCGLF
notes: source: HighFive insect cells, coexpressed with the receptor and Gβ1/Gγ2, purified as complex (Strep-Tactin, SEC)

Key:
Conditions in all cases: both partners purified
[1] = target: B3; experiment: cryo-EM structure; ligand-free CX3CR1-Gi1 complex; construct-1, DNGαi1 and Gβ1/Gγ2 coexpressed in HighFive cells and purified together (Strep-Tactin, SEC) in LMNG/GDN/CHS; 25 mM Hepes pH 7.5, 150 mM NaCl; apyrase treated
[2] = target: T1, CX3CR1 (residues 1 to 315; I120L, L176C, C221S, M250V) as it stands in construct-2 (human, UniProt P49238 1-315, I120^3.43L | L176^ECL2C | C221^ICL3S | M250^6.54V); experiment: cryo-EM structure; CX3CL1-bound CX3CR1-Gi1 complex; construct-2 (CX3CL1 fused to CX3CR1, disulfide G35C-L176C), DNGαi1 and Gβ1/Gγ2 coexpressed in HighFive cells and purified together (Strep-Tactin, SEC) in LMNG/CHS; 25 mM Hepes pH 7.5, 150 mM NaCl; apyrase treated
T1 construct: CX3CR1, human, residues 1 to 315; Not a free protein: the receptor part of the fusion m2; Written alone for the pair CX3CL1 with CX3CR1; source: HighFive insect cells, part of the fusion construct-2, purified as complex (Strep-Tactin, SEC); not shown: Twin-Strep-tag, C-terminal, kept
T1 sequence (looked up): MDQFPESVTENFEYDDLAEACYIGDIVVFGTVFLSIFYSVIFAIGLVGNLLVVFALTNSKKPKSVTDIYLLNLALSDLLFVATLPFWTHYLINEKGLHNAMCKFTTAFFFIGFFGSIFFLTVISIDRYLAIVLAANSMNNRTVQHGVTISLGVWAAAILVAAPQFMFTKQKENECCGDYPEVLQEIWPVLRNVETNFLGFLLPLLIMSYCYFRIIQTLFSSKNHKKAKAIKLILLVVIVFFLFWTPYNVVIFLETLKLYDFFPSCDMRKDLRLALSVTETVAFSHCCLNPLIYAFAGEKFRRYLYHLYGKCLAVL

[3] = target: T2, Modified CX3CL1-CX3CR1 fusion followed by the Twin-Strep-Tag at the C terminus ( | human, UniProt P78423 25-100; P49238 1-315, G35C | I120^3.43L | L176^ECL2C | C221^ICL3S | M250^6.54V, pyroglutamate at residue 1 of CX3CL1 (pE1); disulfide between G35C of CX3CL1 and L176C of CX3CR1); experiment: as above
T2 construct: CX3CL1 chemokine domain, residues 1 to 76; numbers count on: the mature protein (pE1 is residue 1); 28-residue linker (14 × Gly-Ser); CX3CR1, human, residues 1 to 315, as in construct-1 with the additional L176C; A signal peptide before CX3CL1 is not described; also called construct-2; fused form of CX3CR1-CX3CL1 with a cross-linking disulfide bond; source: HighFive insect cells, coexpressed with …
T2 sequence: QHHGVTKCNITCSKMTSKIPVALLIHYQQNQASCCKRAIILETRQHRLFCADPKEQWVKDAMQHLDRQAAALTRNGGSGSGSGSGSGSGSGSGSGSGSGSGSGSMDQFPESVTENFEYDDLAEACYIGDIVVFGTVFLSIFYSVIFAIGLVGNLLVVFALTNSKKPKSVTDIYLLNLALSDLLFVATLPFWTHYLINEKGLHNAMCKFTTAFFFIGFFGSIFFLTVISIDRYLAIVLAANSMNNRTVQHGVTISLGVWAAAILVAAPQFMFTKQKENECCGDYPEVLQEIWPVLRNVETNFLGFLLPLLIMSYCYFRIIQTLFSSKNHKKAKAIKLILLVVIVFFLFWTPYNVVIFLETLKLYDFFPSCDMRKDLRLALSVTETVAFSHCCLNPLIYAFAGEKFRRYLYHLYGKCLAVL

binding result [1]: binds
B1: Modified human CX3CR1 (residues 1 to 315) with three mutations (I120L, C221S, M250V) and a C-terminal Twin-Strep-tag (receptor, UniProt P49238 1-315, looked up)
chain: MDQFPESVTENFEYDDLAEACYIGDIVVFGTVFLSIFYSVIFAIGLVGNLLVVFALTNSKKPKSVTDIYLLNLALSDLLFVATLPFWTHYLINEKGLHNAMCKFTTAFFFIGFFGSIFFLTVISIDRYLAIVLAANSMNNRTVQHGVTISLGVWAAAILVAAPQFMFTKQKENECLGDYPEVLQEIWPVLRNVETNFLGFLLPLLIMSYCYFRIIQTLFSSKNHKKAKAIKLILLVVIVFFLFWTPYNVVIFLETLKLYDFFPSCDMRKDLRLALSVTETVAFSHCCLNPLIYAFAGEKFRRYLYHLYGKCLAVL
notes: CX3CR1, human, residues 1 to 315 (40 residues C316 to L355 truncated from the C terminus); also called construct-1; engineered construct; source: HighFive insect cells, coexpressed with DNGαi1 and Gβ1/Gγ2, purified as complex (Strep-Tactin, SEC); not shown: Twin-Strep-tag, C-terminal, kept

binding result [2]: binds
B2: CX3CL1 (residues 1 to 76, G35C) as it stands in construct-2 (ligand, UniProt P78423 25-100, looked up)
chain: QHHGVTKCNITCSKMTSKIPVALLIHYQQNQASCCKRAIILETRQHRLFCADPKEQWVKDAMQHLDRQAAALTRNG
modifications: pyroglutamate at 1 (pE1)
notes: CX3CL1 chemokine domain, residues 1 to 76; numbers count on: the mature protein (pE1 is residue 1); Written alone for the pair CX3CL1 with CX3CR1; also called chemokine CX3CL1; source: HighFive insect cells, part of the fusion construct-2, purified as complex (Strep-Tactin, SEC)

Binder: B3
binding result [3]: binds
